The text below walks through data of patent publication US20220289833A1 (BIOSION, published 2022).

Residue numbers refer to the chain shown, from its start.

T1: Recombinant cynomolgus monkey TSLP-his (cynomolgus monkey)
T1 construct: Prepared in-house; Amine-coupled to CM5 chip in SPR, coated on plates in the indirect ELISA; also called cynomolgus TSLP; cynomolgus TSLP-his protein
T1 chain: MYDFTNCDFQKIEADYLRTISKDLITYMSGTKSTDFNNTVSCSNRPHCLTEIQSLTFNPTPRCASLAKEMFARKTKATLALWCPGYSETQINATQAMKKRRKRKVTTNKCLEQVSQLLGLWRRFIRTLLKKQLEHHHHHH

B1: hu1C5F12E9-V8 (IgG4) (antibody)
heavy: not shown
light: DIQMTQSPSSLSASVGDRVTITCRPTENIYSYLAWYQQKPGKAPKLLIYFARTLAEGVPSRFSGSGSGTDFTLTISSLQPEDFATYYCQHHYGTPWTFGGGTKVEIKRTVAAPSVFIFPPSDEQLKSGTASVVCLLNNFYPREAKVQWKVDNALQSGNSQESVTEQDSKDSTYSLSSTLTLSKADYEKHKVYACEVTHQGLSSPVTKSFNRGEC
notes: also called huC5F12E9-V8
B2: hu1C5F12E9-V14 (IgG4) (antibody)
heavy: not shown
light: B1 light with A43S
notes: also called huC5F12E9-V14
B3: hu1C5F12E9-V8 (IgG1) (antibody)
heavy: not shown
light: B1 light
notes: Humanized, human IgG1/kappa
B4: hu1C5F12E9-V14 (IgG1) (antibody)
heavy: not shown
light: B1 light with A43S
notes: Humanized, human IgG1/kappa
B5: hu1C5F12E9-V16 (antibody, human IgG4 S228P, kappa, V domains shown)
VH: QVQLVQSGAEVKKPGASVKVSCKASGYTFTTYWMHWVRQAPGQGLEWMGVIDPSDSDTTYNQKFKGRATMTRDTSTSTVYMELSSLRSEDTAVYYCTRSLDGYYDYWGQGTLVTVSS
VL: DIQMTQSPSSLSASVGDRVTITCRPTENIYSYLAWYQQKPGKSPKLLIYFARTLAEGVPSRFSGSGSGTDFTLTISSLQPEDFATYYCQHHYGTPWTFGGGTKVEIKR
B6: hu1C5F12E9-V7 (antibody, human IgG4 S228P, kappa, V domains shown)
VH: B5 VH with M48I, M70L, R72V, T76S, V79A
VL: B5 VL with S43A
B7: hu1C5F12E9-V15 (antibody, human IgG4 S228P, kappa, V domains shown)
VH: B5 VH with A68V, R72V
VL: B5 VL
B8: hu1C5F12E9-V12 (antibody, human IgG4 S228P, kappa, V domains shown)
VH: B5 VH with R67K, R72V
VL: B5 VL with S43A
B9: hu1C5F12E9-V17 (antibody, human IgG4 S228P, kappa, V domains shown)
VH: B5 VH with R67K
VL: B5 VL
B10: hu1C5F12E9-V1 (antibody, human IgG4 S228P, kappa, V domains shown)
VH: B5 VH with M48I, M70L, R72V, T76S, V79A
VL: B5 VL with I48V
B11: hu1C5F12E9-V11 (antibody, human IgG4 S228P, kappa, V domains shown)
VH: B5 VH with R67K
VL: B5 VL with S43A
B12: hu1C5F12E9-V13 (antibody, human IgG4 S228P, kappa, V domains shown)
VH: B5 VH with M48I, M70L, R72V, T76S, V79A
VL: B5 VL
B13: hu1C5F12E9-V3 (antibody, human IgG4 S228P, kappa, V domains shown)
VH: B5 VH with A68V, R72V
VL: B5 VL with I48V
B14: hu1C5F12E9-V5 (antibody, human IgG4 S228P, kappa, V domains shown)
VH: B5 VH with R67K
VL: B5 VL with I48V
B15: hu1C5F12E9-V18 (antibody, human IgG4 S228P, kappa, V domains shown)
VH: B5 VH with R67K, R72V
VL: B5 VL
B16: hu1C5F12E9-V9 (antibody, human IgG4 S228P, kappa, V domains shown)
VH: B5 VH with A68V, R72V
VL: B5 VL with S43A
B17: 1F5H12D7 (antibody, V domains shown)
VH: QVQLQQPGTELVKPGASVKMSCKASGYTFTTYWMHWVKQRPGQGLEWIGVIDPSDSDTTYNQKFKGKATLTVDTSSSTAYMQLSSLTSEDSAVYYCTRSLDGYYDYWGQGTTLTVSS
VL: DIQMTQSPASLSASVGETVTITCRPTENIYSYLAWYQQKQGKSPHLLVYFARTLAEGVPSRFSGSGSGTQFSLKINSLQPEDFGIYYCQHHYGTPWTFGGGTKLEIK
B18: 1G3B9B1 (antibody, V domains shown)
VH: B17 VH
VL: B17 VL
notes: Mouse hybridoma mAb
B19: 1G2H12A1 (antibody, V domains shown)
VH: B17 VH
VL: B17 VL
notes: Mouse hybridoma mAb
B20: 1H3F11B7 (antibody, V domains shown)
VH: B17 VH
VL: B17 VL
notes: Mouse hybridoma mAb

The first assay addresses T1, Recombinant cynomolgus monkey TSLP-his. The experiment in a line: indirect ELISA on coated cynomolgus TSLP-his.
Usually EC50 stands for the concentration at which the effect is half-maximal. As for B1, the EC50 was found to be 0.17 nM.

Turning to B2, the EC50 came to 0.151 nM.

Another assay deals with T2, human TSLP-Fc (human, biotin-labeled).
T2 construct: Prepared in-house; also called biotin-labeled human TSLP-Fc; TSLP-Fc-biotin
The assay can be described thus: cell-based ligand-blocking FACS: antibody pre-mixed with human TSLP-Fc; blocked binding to BAF3-3E6 cells expressing human TSLPR and IL7R.
As usually defined, the IC50 is the concentration at which inhibition is half-maximal. Turning to B1, the IC50 turned out to be 2.38 nM.

Regarding B2, the concentration for half-maximal inhibition (IC50) is approximately 3.07 nM.

The next assay has as its target T3, Recombinant human TSLP-his (human, UniProt Q969D9 29-159).
T3 construct: Prepared in-house; Amine-coupled to CM5 chip in SPR, loaded on APS sensors in Octet, biotin-labeled in the capture ELISA, unlabeled in the cell functional assays; also called human TSLP-his protein
The experiment in a line: capture ELISA: antibody captured on anti-IgG Fc coat, biotin-labeled human TSLP-his detected with streptavidin-HRP. (An ELISA detects its analyte on a solid surface through an enzyme-linked reagent.)
On to B1, for which the EC50 worked out at 0.173 nM.

For B2, the EC50 came out at 0.169 nM.

In another assay the target is T2, human TSLP-Fc. The experiment in a line: competitive ELISA: antibody pre-mixed with biotin-labeled human TSLP-Fc; blocked binding to coated human TSLPR-Fc/IL7Ra-Fc.
In turn, B3 had an IC50 of 0.707 nM.

The molecule B2 yielded an IC50 of 0.958 nM.

Consider B4, for which the 50% inhibitory concentration (IC50) came to 0.758 nM.

Another assay has as its target T3, Recombinant human TSLP-his. The assay can be described thus: SPR, Biacore T200; protocol of Example 2. For orientation: In SPR one partner is held on a chip, and binding of the other changes the refractive index at the surface.
Usually Kd stands for the concentration at which binding is half-saturated. As a reminder, the koff is a measure of how fast the partners let go of each other. What is called kon is the rate constant with which the complex forms. Turning to B5, the Kd is less than 0.0962 nM, the koff was less than 1e-05 s⁻¹ and the kon was 104000 M⁻¹ s⁻¹.

B6: the Kd is less than 0.0926 nM, the koff is less than 1e-05 s⁻¹ and the kon was 108000 M⁻¹ s⁻¹.

On to B7, for which the Kd is less than 0.0893 nM, the koff was less than 1e-05 s⁻¹ and the kon stood at 112000 M⁻¹ s⁻¹.

Take B8: the Kd was less than 0.104 nM, the dissociation rate constant (koff) was less than 1e-05 s⁻¹ and the kon was determined as 96100 M⁻¹ s⁻¹.

Regarding B9, the Kd is less than 0.0909 nM, the off-rate (koff) is less than 1e-05 s⁻¹ and the kon came out at 110000 M⁻¹ s⁻¹.

With B10, the Kd is less than 0.101 nM, the koff was less than 1e-05 s⁻¹ and the kon was found to be 99300 M⁻¹ s⁻¹.

Regarding B11, the Kd was less than 0.11 nM, the koff is less than 1e-05 s⁻¹ and the kon turned out to be 90700 M⁻¹ s⁻¹.

Take B12: the dissociation constant Kd is less than 0.0962 nM, the koff was less than 1e-05 s⁻¹ and the on-rate constant (kon) is 104000 M⁻¹ s⁻¹.

As for B13, the Kd was less than 0.0971 nM, the koff was less than 1e-05 s⁻¹ and the kon amounted to 103000 M⁻¹ s⁻¹.

On to B14, for which the Kd was less than 0.0971 nM, the koff was less than 1e-05 s⁻¹ and the kon is 103000 M⁻¹ s⁻¹.

As to B15, the Kd was less than 0.0826 nM, the koff was less than 1e-05 s⁻¹ and the association rate constant (kon) turned out to be 121000 M⁻¹ s⁻¹.

For the molecule B16, the Kd was less than 0.082 nM, the koff was less than 1e-05 s⁻¹ and the on-rate (kon) amounted to 122000 M⁻¹ s⁻¹.

On to B2, for which the Kd is less than 0.0956 nM, the koff is less than 1e-05 s⁻¹ and the on-rate constant (kon) amounted to 105000 M⁻¹ s⁻¹.

Another assay deals with T2, human TSLP-Fc. The assay can be described thus: cell-based ligand-blocking FACS: antibody pre-mixed with human TSLP-Fc; blocked binding to BAF3-3E6 cells expressing human TSLPR and IL7R. This is another data set of the same source.
Consider B1, for which the 50% inhibitory concentration (IC50) is approximately 1.1 nM.

B3 yielded an IC50 of approximately 1.12 nM.

As to B2, the IC50 is approximately 1.09 nM.

Take B4: the 50% inhibitory concentration (IC50) was approximately 1.14 nM.

A further assay addresses T3, Recombinant human TSLP-his. The experiment in a line: SPR, BIAcore; protocol of Example 2.
On to B1, for which the dissociation constant (Kd) was less than 0.0598 nM.

Consider B2, for which the Kd is less than 0.061 nM, the koff is less than 1e-05 s⁻¹ and the kon amounted to 164000 M⁻¹ s⁻¹.

In a further assay the target is T1, Recombinant cynomolgus monkey TSLP-his. The assay can be described thus: SPR, BIAcore; protocol of Example 2.
As for B1, the Kd was less than 0.0328 nM.

Take B2: the dissociation constant Kd is less than 0.0322 nM, the koff was less than 1e-05 s⁻¹ and the kon stood at 311000 M⁻¹ s⁻¹.

The next assay has as its target T2, human TSLP-Fc. The experiment in a line: competitive ELISA: antibody pre-mixed with biotin-labeled human TSLP-Fc; blocked binding to coated Tezepelumab.
For the molecule B1, the IC50 was 0.381 nM.

Molecule B2 displayed a 50% inhibitory concentration (IC50) of 0.403 nM.

Another assay concerns the target T3, Recombinant human TSLP-his. The assay can be described thus: SPR, Biacore T200; below the instrument limit, roughly calculated from the sensorgram.
Regarding B5, the koff is approximately 1.17e-06 s⁻¹.

As to B6, the off-rate constant (koff) is less than 1e-05 s⁻¹.

B7: the koff is approximately 3.63e-06 s⁻¹.

In the case of B8, the koff is less than 1e-05 s⁻¹.

In the case of B9, the koff was approximately 6.43e-06 s⁻¹.

As for B10, the dissociation rate constant (koff) is less than 1e-05 s⁻¹.

Consider B11, for which the koff is approximately 7.56e-07 s⁻¹.

In the case of B12, the koff was approximately 3.62e-07 s⁻¹.

Turning to B13, the koff was less than 1e-05 s⁻¹.

For B14, the off-rate (koff) is less than 1e-05 s⁻¹.

Regarding B15, the koff was approximately 9.65e-06 s⁻¹.

In the case of B16, the koff is approximately 6.57e-07 s⁻¹.

For B2, the koff is approximately 3.21e-06 s⁻¹.

In another assay the target is T2, human TSLP-Fc. The assay can be described thus: competitive ELISA: antibody pre-mixed with biotin-labeled human TSLP-Fc; blocked binding to coated Tezepelumab. The source holds these as a separate data set.
B1 yielded an IC50 of 1.06 nM.

B3 registered an IC50 of 0.78 nM.

B2 returned an IC50 of 0.909 nM.

B4 yielded an IC50 of 0.806 nM.

In another assay the target is T3, Recombinant human TSLP-his. The experiment in a line: SPR, Biacore T200; TSLP-his amine-coupled to CM5 chip, antibody as analyte; 1:1 Langmuir fit.
B17: the Kd was less than 0.112 nM, the koff was less than 1e-05 s⁻¹ and the kon was determined as 89700 M⁻¹ s⁻¹.

Regarding B18, the Kd is less than 0.107 nM, the koff is less than 1e-05 s⁻¹ and the kon came out at 93600 M⁻¹ s⁻¹.

Regarding B19, the Kd was less than 0.117 nM, the dissociation rate constant (koff) was less than 1e-05 s⁻¹ and the kon is 85200 M⁻¹ s⁻¹.

For the molecule B20, the dissociation constant (Kd) is less than 0.108 nM, the koff is less than 1e-05 s⁻¹ and the kon is 92900 M⁻¹ s⁻¹.

For another assay, the target named is T3, Recombinant human TSLP-his. The assay can be described thus: capture ELISA: antibody captured on anti-IgG Fc coat, biotin-labeled human TSLP-his detected with streptavidin-HRP. This is another data set of the same source.
On to B1, for which the EC50 stood at 0.124 nM.

For the molecule B3, the EC50 is 0.116 nM.

On to B2, for which the EC50 turned out to be 0.102 nM.

B4: the half-maximal effective concentration (EC50) worked out at 0.11 nM.

The next assay has as its target T2, human TSLP-Fc. The assay can be described thus: competitive ELISA: antibody pre-mixed with biotin-labeled human TSLP-Fc; blocked binding to coated human TSLPR-Fc/IL7Ra-Fc. The source holds these as a separate data set.
B1 had an IC50 of 0.145 nM.

B2 displayed an IC50 of 0.123 nM.
